Experimental data as given in publication PMC12923992 (Cell metabolism, 2026).

Target: T1, N-terminal cytosolic domain of Band 3 (residues 1–395) (human, UniProt P02730 1-395)
T1 sequence (looked up): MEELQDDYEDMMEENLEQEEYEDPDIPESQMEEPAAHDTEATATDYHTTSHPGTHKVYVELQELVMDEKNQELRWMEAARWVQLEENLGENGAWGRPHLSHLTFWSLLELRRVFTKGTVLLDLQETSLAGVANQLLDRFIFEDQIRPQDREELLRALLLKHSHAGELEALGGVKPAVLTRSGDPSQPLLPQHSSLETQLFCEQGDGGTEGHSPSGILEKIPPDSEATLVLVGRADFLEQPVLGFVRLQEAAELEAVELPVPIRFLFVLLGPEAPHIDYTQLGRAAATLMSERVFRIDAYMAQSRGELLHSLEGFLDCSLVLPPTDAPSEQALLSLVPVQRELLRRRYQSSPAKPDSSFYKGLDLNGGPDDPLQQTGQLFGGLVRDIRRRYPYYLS
Test: ITC

Kd: 1180 nM
B1: recombinantly-expressed human GAPDH (enzyme)
chain: not shown
